Values of other authors as cited in paper PMC6359508.

Molecular target: actin microfilament (UniProt P68133)

Kd: 150 nM
Substance: V-ATPase B subunit (from UniProt P21281)
